# The supplement of paper PMC10567573
# B1: KLHL14 (parent)
# chain: YVIGGRNETGYLSSVECYNLETNE
# B2: KRT13 (parent)
# chain: KTIEELRDKILTATIENNRVILEI
# Variants of: B1
# Assay: protein stability index of a GFP-peptide fusion (GPS, HEK-293T) (PSI 1-6); higher = more stable
# Details: c terminus: a fixed tail appended
# 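Also: lentivirally expressed fusions sorted by FACS into six bins by GFP to DsRed ratio, PSI derived from sequencing read proportions per bin multiplied by bin number.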
row,Variant,protein stability index
1,YVIGGRNETGYLSSVECYNLETNI [E24I],2.19
2,YVIGGRNETGYLSSVECYNLETNK [E24K],1.75
3,YVIGGRNETGYLSSVECYNLETNL [E24L],2.27
4,YVIGGRNETGYLSSVECYNLETNM [E24M],1.71
5,YVIGGRNETGYLSSVECYNLETNN [E24N],1.99
6,YVIGGRNETGYLSSVECYNLETNP [E24P],1.72
7,YVIGGRNETGYLSSVECYNLETNQ [E24Q],1.49
8,YVIGGRNETGYLSSVECYNLETNR [E24R],2.17
9,YVIGGRNETGYLSSVECYNLETNS [E24S],2.07
10,YVIGGRNETGYLSSVECYNLETNT [E24T],1.63
11,YVIGGRNETGYLSSVECYNLETNV [E24V],1.96
12,YVIGGRNETGYLSSVECYNLETNW [E24W],1.67
13,YVIGGRNETGYLSSVECYNLETNY [E24Y],2.08

# Variants of: B2
# Assay: as above
# Details: c terminus: a fixed tail appended
row,Variant,protein stability index
1,ATIEELRDKILTATIENNRVILEI [K1A],3.63
2,CTIEELRDKILTATIENNRVILEI [K1C],1.99
3,DTIEELRDKILTATIENNRVILEI [K1D],2.31
4,ETIEELRDKILTATIENNRVILEI [K1E],2.38
5,FTIEELRDKILTATIENNRVILEI [K1F],3.36
6,HTIEELRDKILTATIENNRVILEI [K1H],2.09
7,ITIEELRDKILTATIENNRVILEI [K1I],2.74
8,MTIEELRDKILTATIENNRVILEI [K1M],1.88
9,NTIEELRDKILTATIENNRVILEI [K1N],2.48
10,PTIEELRDKILTATIENNRVILEI [K1P],1.24
11,RTIEELRDKILTATIENNRVILEI [K1R],1.6
12,STIEELRDKILTATIENNRVILEI [K1S],3.17
13,TTIEELRDKILTATIENNRVILEI [K1T],2.34
14,WTIEELRDKILTATIENNRVILEI [K1W],3.79
15,YTIEELRDKILTATIENNRVILEI [K1Y],2.36
16,KAIEELRDKILTATIENNRVILEI [T2A],2.31
17,KCIEELRDKILTATIENNRVILEI [T2C],2.92
18,KDIEELRDKILTATIENNRVILEI [T2D],2.88
19,KEIEELRDKILTATIENNRVILEI [T2E],1.63
20,KHIEELRDKILTATIENNRVILEI [T2H],1.86
21,KKIEELRDKILTATIENNRVILEI [T2K],2.6

row,Variant,protein stability index
1,KLIEELRDKILTATIENNRVILEI [T2L],2.35
2,KMIEELRDKILTATIENNRVILEI [T2M],2.73
3,KNIEELRDKILTATIENNRVILEI [T2N],2.12
4,KQIEELRDKILTATIENNRVILEI [T2Q],3.17
5,KWIEELRDKILTATIENNRVILEI [T2W],3.4
6,KTAEELRDKILTATIENNRVILEI [I3A],1.24
7,KTCEELRDKILTATIENNRVILEI [I3C],3.18
8,KTDEELRDKILTATIENNRVILEI [I3D],1.67
9,KTEEELRDKILTATIENNRVILEI [I3E],2.13
10,KTFEELRDKILTATIENNRVILEI [I3F],3.37
11,KTGEELRDKILTATIENNRVILEI [I3G],3.54
12,KTKEELRDKILTATIENNRVILEI [I3K],2.09
13,KTNEELRDKILTATIENNRVILEI [I3N],2.43
14,KTPEELRDKILTATIENNRVILEI [I3P],1.39
15,KTQEELRDKILTATIENNRVILEI [I3Q],2.43
16,KTREELRDKILTATIENNRVILEI [I3R],1.36
17,KTSEELRDKILTATIENNRVILEI [I3S],2.41
18,KTTEELRDKILTATIENNRVILEI [I3T],2.91
19,KTIAELRDKILTATIENNRVILEI [E4A],1.85
20,KTIDELRDKILTATIENNRVILEI [E4D],3.39
21,KTIFELRDKILTATIENNRVILEI [E4F],3.99

row,Variant,protein stability index
1,KTIHELRDKILTATIENNRVILEI [E4H],3.82
2,KTIIELRDKILTATIENNRVILEI [E4I],2.6
3,KTILELRDKILTATIENNRVILEI [E4L],4.03
4,KTIMELRDKILTATIENNRVILEI [E4M],1.7
5,KTIRELRDKILTATIENNRVILEI [E4R],3.26
6,KTISELRDKILTATIENNRVILEI [E4S],3.44
7,KTITELRDKILTATIENNRVILEI [E4T],3.39
8,KTIVELRDKILTATIENNRVILEI [E4V],2.4
9,KTIEALRDKILTATIENNRVILEI [E5A],2.6
10,KTIEGLRDKILTATIENNRVILEI [E5G],2.46
11,KTIEILRDKILTATIENNRVILEI [E5I],3.5
12,KTIEKLRDKILTATIENNRVILEI [E5K],2.95
13,KTIEMLRDKILTATIENNRVILEI [E5M],4.08
14,KTIEPLRDKILTATIENNRVILEI [E5P],3.07
15,KTIEQLRDKILTATIENNRVILEI [E5Q],2.38
16,KTIERLRDKILTATIENNRVILEI [E5R],2.13
17,KTIEVLRDKILTATIENNRVILEI [E5V],1.83
18,KTIEWLRDKILTATIENNRVILEI [E5W],2.82
19,KTIEYLRDKILTATIENNRVILEI [E5Y],4.43
20,KTIEEARDKILTATIENNRVILEI [L6A],1.94
21,KTIEECRDKILTATIENNRVILEI [L6C],3.04

row,Variant,protein stability index
1,KTIEEDRDKILTATIENNRVILEI [L6D],1.92
2,KTIEEERDKILTATIENNRVILEI [L6E],1.85
3,KTIEEGRDKILTATIENNRVILEI [L6G],1.47
4,KTIEEHRDKILTATIENNRVILEI [L6H],3.32
5,KTIEEIRDKILTATIENNRVILEI [L6I],2.5
6,KTIEEKRDKILTATIENNRVILEI [L6K],2.32
7,KTIEEMRDKILTATIENNRVILEI [L6M],1.98
8,KTIEENRDKILTATIENNRVILEI [L6N],1.31
9,KTIEEPRDKILTATIENNRVILEI [L6P],1.48
10,KTIEEQRDKILTATIENNRVILEI [L6Q],1.89
11,KTIEERRDKILTATIENNRVILEI [L6R],2.56
12,KTIEETRDKILTATIENNRVILEI [L6T],2.46
13,KTIEEVRDKILTATIENNRVILEI [L6V],2.23
14,KTIEEYRDKILTATIENNRVILEI [L6Y],3.18
15,KTIEELADKILTATIENNRVILEI [R7A],2.27
16,KTIEELCDKILTATIENNRVILEI [R7C],3.68
17,KTIEELDDKILTATIENNRVILEI [R7D],2.25
18,KTIEELFDKILTATIENNRVILEI [R7F],1.85
